# According to patent US20170202936A1 (VAXON BIOTECH, published 2017):
# B1: APREYVNAL (SEQ ID NO: 47) (peptide)
# peptide: APREYVNAL
# B2: Her2/neu246A1 (peptide)
# peptide: APKHSDCLA
# notes: Synthetic optimized peptide; Her2/neu246 with A at position 1
# B3: APRVSIRLPL (SEQ ID NO: 46) (peptide)
# peptide: APRVSIRLPL
# B4: Hsp70115A1R3 (peptide)
# peptide: APREISSMVL
# notes: Hsp70 115 with A at position 1 and R at position 3
# B5: APRPWTPCL (SEQ ID NO: 52) (peptide)
# peptide: APRPWTPCL
# B6: Hsp70397R3L9 (peptide)
# peptide: APRSLGLEL
# B7: APRRRLGCEL (SEQ ID NO: 51) (peptide)
# peptide: APRRRLGCEL
# B8: Hsp70 115 (peptide)
# peptide: YPEEISSMVL
# notes: also called Hsp115
# B9: APRTKAEML (SEQ ID NO: 57) (peptide)
# peptide: APRTKAEML
# B10: TERT444A1 (peptide)
# peptide: APRRLVQLL
# notes: TERT444 with A at position 1
# B11: APRMHCAVDL (SEQ ID NO: 45) (peptide)
# peptide: APRMHCAVDL
# B12: Hsp70 137 (10) (peptide)
# peptide: YPVTNAVITV
# notes: also called Hsp137
# B13: Her2/neu1069L9 (peptide)
# peptide: APRSPLAPL
# notes: Synthetic optimized peptide; Her2/neu1069 with L at the C-terminal position
# B14: APRALVETL (SEQ ID NO: 49) (peptide)
# peptide: APRALVETL
# B15: TERT4 (peptide)
# peptide: APRCRAVRSL
# Legend:
# HLA-B*0702 [1] = molecular target: T1, HLA-B*0702 (human); test: RA grade (+ = 1 < RA < 10), T2-B7 cells, ME-1 mAb staining
# T1 construct: MHC class I molecule on T2-B7 cells; also called HLA-B7
# Text: (§1) The protocol used has been described previously (Rohrlich et al., 2003).
# HLA-B*0702 [2] = molecular target: T1, HLA-B*0702; test: assay not given
# HLA-B*0702 [3] = molecular target: T1, HLA-B*0702; test: RA grade (++ = RA < 1), T2-B7 cells, ME-1 mAb staining
# Text: as §1
# HLA-B*0702 [4] = molecular target: T1, HLA-B*0702; test: T2-B7 cells, HLA-B*0702 surface expression (ME-1 mAb); ratio to reference peptide CMV265-274 (SEQ ID NO: 9)
# Text: as §1
binder,measurement,setting,value
B1,relative affinity (RA): ratio of peptide concentration to reference peptide concentration inducing 20% of HLA-B*0702 expression,HLA-B*0702 [1],1 to 10 ratio
B2,binding result,HLA-B*0702 [2],binds
B3,relative affinity (RA): ratio of peptide concentration to reference peptide concentration inducing 20% of HLA-B*0702 expression,HLA-B*0702 [3],< 1 ratio
B4,relative affinity (RA): ratio of peptide concentration to reference peptide concentration inducing 20% of HLA-B*0702 expression,HLA-B*0702 [1],1 to 10 ratio
B5,relative affinity (RA): ratio of peptide concentration to reference peptide concentration inducing 20% of HLA-B*0702 expression,HLA-B*0702 [1],1 to 10 ratio
B6,relative affinity (RA): ratio of peptide concentration to reference peptide concentration inducing 20% of HLA-B*0702 expression,HLA-B*0702 [3],< 1 ratio
B7,relative affinity (RA): ratio of peptide concentration to reference peptide concentration inducing 20% of HLA-B*0702 expression,HLA-B*0702 [1],1 to 10 ratio
B8,RA (relative affinity),HLA-B*0702 [4],> 10 ratio
B9,relative affinity (RA): ratio of peptide concentration to reference peptide concentration inducing 20% of HLA-B*0702 expression,HLA-B*0702 [1],1 to 10 ratio
B10,RA (relative affinity),HLA-B*0702 [4],1.4 ratio
same,relative affinity (RA): ratio of peptide concentration to reference peptide concentration inducing 20% of HLA-B*0702 expression,HLA-B*0702 [1],1 to 10 ratio
B11,relative affinity (RA): ratio of peptide concentration to reference peptide concentration inducing 20% of HLA-B*0702 expression,HLA-B*0702 [3],< 1 ratio
B12,RA (relative affinity),HLA-B*0702 [4],> 10 ratio
B13,relative affinity (RA): ratio of peptide concentration to reference peptide concentration inducing 20% of HLA-B*0702 expression,HLA-B*0702 [3],< 1 ratio
B14,relative affinity (RA): ratio of peptide concentration to reference peptide concentration inducing 20% of HLA-B*0702 expression,HLA-B*0702 [1],1 to 10 ratio
B15,RA (relative affinity),HLA-B*0702 [4],0.74 ratio
same,relative affinity (RA): ratio of peptide concentration to reference peptide concentration inducing 20% of HLA-B*0702 expression,HLA-B*0702 [1],1 to 10 ratio
